Measurements from US20150307561.

Legend:
[1] = tested on: TALE tetramer library CTTC (repeats 1-4 varied) (synthetic (Xanthomonas TALE scaffold)); test: ELISA; conditions: mean of 132 library clones, SE 0.07
[2] = tested on: TALE tetramer library TCAT (repeats 1-4 varied) (synthetic (Xanthomonas TALE scaffold)); test: ELISA; conditions: mean of 44 library clones, SE 0.22
[3] = tested on: TALE tetramer library ATAC (repeats 5-8 varied) (synthetic (Xanthomonas TALE scaffold)); test: ELISA; conditions: mean of 43 library clones, SE 0.06
[4] = tested on: TALE tetramer library ATTG (repeats 5-8 varied) (synthetic (Xanthomonas TALE scaffold)); test: ELISA; conditions: mean of 131 library clones, SE 0.05
[5] = tested on: TALE tetramer library CAGA (repeats 5-8 varied) (synthetic (Xanthomonas TALE scaffold)); test: ELISA; conditions: mean of 146 library clones, SE 0.02
[6] = tested on: TALE tetramer library CAGC (repeats 5-8 varied) (synthetic (Xanthomonas TALE scaffold)); test: ELISA; conditions: mean of 137 library clones, SE 0.02
[7] = tested on: TALE tetramer library CCTG (repeats 5-8 varied) (synthetic (Xanthomonas TALE scaffold)); test: ELISA; conditions: mean of 90 library clones, SE 0.03
[8] = tested on: TALE tetramer library TACA (repeats 5-8 varied) (synthetic (Xanthomonas TALE scaffold)); test: ELISA; conditions: mean of 85 library clones, SE 0.06
[9] = tested on: TALEN R2+17 (synthetic (Xanthomonas TALE scaffold)); test: cell_activity; conditions: K562, partner L+17 or L*+17, cold shock

## CATAGTCCCCTCTTCATCCTCCTCGGTGTAGTTTTCACAGTCAGTCCACACGTC (double strand) [CTTC target]
[1]
  binding signal (fraction of canonical control): 0.55

## CATAGTCCCCTTCATATCCTCCTCGGTGTAGTTTTCACAGTCAGTCCACACGTC (double strand) [TCAT target]
[2]
  binding signal (fraction of canonical control): 1.03

## CATAGTCCCCTTGACATACTCCTCGGTGTAGTTTTCACAGTCAGTCCACACGTC (double strand) [ATAC target]
[3]
  binding signal (fraction of canonical control): 0.56

## CATAGTCCCCTTGACATTGTCCTCGGTGTAGTTTTCACAGTCAGTCCACACGTC (double strand) [ATTG target]
[4]
  binding signal (fraction of canonical control): 0.37

## CATAGTCCCCTTGACCAGATCCTCGGTGTAGTTTTCACAGTCAGTCCACACGTC (double strand) [CAGA target]
[5]
  binding signal (fraction of canonical control): 0.18

## CATAGTCCCCTTGACCAGCTCCTCGGTGTAGTTTTCACAGTCAGTCCACACGTC (double strand) [CAGC target]
[6]
  binding signal (fraction of canonical control): 0.03

## CATAGTCCCCTTGACCCTGTCCTCGGTGTAGTTTTCACAGTCAGTCCACACGTC (double strand) [CCTG target]
[7]
  binding signal (fraction of canonical control): 0.2

## CATAGTCCCCTTGACTACATCCTCGGTGTAGTTTTCACAGTCAGTCCACACGTC (double strand) [TACA target]
[8]
  binding signal (fraction of canonical control): 0.5

## CCATACAGTCAGTATCAAT (double strand) [CCR5 +17 target, right half]
[9]
  activity: > 85 % indels
